Holding throughout (assay): co-IP
The target of assay [1] is T1, C-terminally truncated mouse CD4 T1 (mouse, UniProt P06332-1 27-422).
T1 sequence (looked up): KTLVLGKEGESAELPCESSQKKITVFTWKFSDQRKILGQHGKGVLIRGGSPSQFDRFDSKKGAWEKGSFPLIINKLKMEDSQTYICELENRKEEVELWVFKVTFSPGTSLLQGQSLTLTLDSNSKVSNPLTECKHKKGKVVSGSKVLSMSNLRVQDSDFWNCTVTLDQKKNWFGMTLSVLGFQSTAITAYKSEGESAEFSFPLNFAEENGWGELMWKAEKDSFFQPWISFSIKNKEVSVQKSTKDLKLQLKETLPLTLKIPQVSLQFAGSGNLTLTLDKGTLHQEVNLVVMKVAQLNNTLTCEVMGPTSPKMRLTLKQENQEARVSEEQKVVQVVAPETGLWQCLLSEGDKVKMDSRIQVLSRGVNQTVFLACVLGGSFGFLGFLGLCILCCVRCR

Assay [2] has as its target T2, T1-TMD (CD4 T1 with GGXXG to GVXXL) (mouse, UniProt P06332-1 27-422, G403V | G406L).
T2 sequence (looked up): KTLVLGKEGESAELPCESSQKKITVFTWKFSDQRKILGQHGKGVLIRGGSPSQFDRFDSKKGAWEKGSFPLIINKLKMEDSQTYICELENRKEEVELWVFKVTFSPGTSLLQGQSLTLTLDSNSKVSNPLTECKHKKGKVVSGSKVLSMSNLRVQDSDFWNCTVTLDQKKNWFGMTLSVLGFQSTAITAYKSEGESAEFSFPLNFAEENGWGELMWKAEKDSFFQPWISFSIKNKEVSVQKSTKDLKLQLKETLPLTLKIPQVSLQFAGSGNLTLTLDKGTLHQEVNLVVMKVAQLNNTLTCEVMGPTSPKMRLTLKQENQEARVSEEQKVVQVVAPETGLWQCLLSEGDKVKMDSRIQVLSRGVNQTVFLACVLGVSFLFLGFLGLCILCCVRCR

Assay [3] addresses T3, T1-Palm (2C) (mouse, UniProt P06332-1 27-422, C418S | C421S).
T3 sequence (looked up): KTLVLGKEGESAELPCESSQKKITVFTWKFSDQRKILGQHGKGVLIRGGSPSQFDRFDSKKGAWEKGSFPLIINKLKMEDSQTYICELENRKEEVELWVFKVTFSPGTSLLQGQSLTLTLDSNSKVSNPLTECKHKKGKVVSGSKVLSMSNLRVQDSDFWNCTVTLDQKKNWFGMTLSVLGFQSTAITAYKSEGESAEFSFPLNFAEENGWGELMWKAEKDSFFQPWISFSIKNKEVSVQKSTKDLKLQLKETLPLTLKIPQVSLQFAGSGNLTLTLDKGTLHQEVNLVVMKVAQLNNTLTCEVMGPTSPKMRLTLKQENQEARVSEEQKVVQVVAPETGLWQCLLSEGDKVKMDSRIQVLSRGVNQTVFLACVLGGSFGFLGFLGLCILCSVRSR

For assay [4], the target named is T4, T1-TP (2C) (mouse, UniProt P06332-1 27-422, G403V | G406L | C418S | C421S).
T4 sequence (looked up): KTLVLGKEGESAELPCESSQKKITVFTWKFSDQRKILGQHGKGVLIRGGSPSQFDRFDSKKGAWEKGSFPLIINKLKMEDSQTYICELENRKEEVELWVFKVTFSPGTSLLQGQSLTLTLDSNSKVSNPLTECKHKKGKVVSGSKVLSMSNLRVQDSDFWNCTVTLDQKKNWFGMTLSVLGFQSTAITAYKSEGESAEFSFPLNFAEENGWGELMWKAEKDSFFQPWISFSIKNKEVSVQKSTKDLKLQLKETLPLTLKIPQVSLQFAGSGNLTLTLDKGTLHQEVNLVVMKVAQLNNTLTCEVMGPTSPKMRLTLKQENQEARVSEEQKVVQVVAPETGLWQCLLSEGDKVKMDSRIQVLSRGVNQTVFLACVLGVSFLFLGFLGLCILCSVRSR

Assay [5] addresses T5, T1-TP (3C) (mouse, UniProt P06332-1 27-422, G403V | G406L | C417S | C418S | C421S).
T5 sequence (looked up): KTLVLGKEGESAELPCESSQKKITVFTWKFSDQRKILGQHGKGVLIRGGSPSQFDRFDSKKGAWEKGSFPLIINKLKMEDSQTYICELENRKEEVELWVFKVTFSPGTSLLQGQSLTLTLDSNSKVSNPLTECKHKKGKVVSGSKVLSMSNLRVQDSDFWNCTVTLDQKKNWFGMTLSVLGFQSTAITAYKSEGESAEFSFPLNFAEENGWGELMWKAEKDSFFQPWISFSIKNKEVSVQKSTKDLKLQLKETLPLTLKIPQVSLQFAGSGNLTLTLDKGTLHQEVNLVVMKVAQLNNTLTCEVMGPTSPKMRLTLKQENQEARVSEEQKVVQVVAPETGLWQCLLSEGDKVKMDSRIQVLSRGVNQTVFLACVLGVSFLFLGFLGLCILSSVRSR

We go through one molecule from paper PMC10197521 (bioRxiv, 2023).

B1: Src kinase LCK (enzyme, UniProt P06240 1-509, looked up)
chain: MGCVCSSNPEDDWMENIDVCENCHYPIVPLDSKISLPIRNGSEVRDPLVTYEGSLPPASPLQDNLVIALHSYEPSHDGDLGFEKGEQLRILEQSGEWWKAQSLTTGQEGFIPFNFVAKANSLEPEPWFFKNLSRKDAERQLLAPGNTHGSFLIRESESTAGSFSLSVRDFDQNQGEVVKHYKIRNLDNGGFYISPRITFPGLHDLVRHYTNASDGLCTKLSRPCQTQKPQKPWWEDEWEVPRETLKLVERLGAGQFGEVWMGYYNGHTKVAVKSLKQGSMSPDAFLAEANLMKQLQHPRLVRLYAVVTQEPIYIITEYMENGSLVDFLKTPSGIKLNVNKLLDMAAQIAEGMAFIEEQNYIHRDLRAANILVSDTLSCKIADFGLARLIEDNEYTAREGAKFPIKWTAPEAINYGTFTIKSDVWSFGILLTEIVTHGRIPYPGMTNPEVIQNLERGYRMVRPDNCPEELYHLMMLCWKERPEDRPTFDYLRSVLDDFFTATEGQYQPQP
With B1, in assay [1], the “Lck DRM AUC (LCK found with CD4, normalised to CD4), percent of WT” value is 28.8 % of WT control; the “Lck DSM AUC (LCK found with CD4, normalised to CD4), percent of WT” value is 16.1 % of WT control; the “Lck Total AUC (LCK found with CD4, normalised to CD4), percent of WT” value was 19.2 % of WT control. In assay [2], the “Lck DRM AUC (LCK found with CD4, normalised to CD4), percent of T1” value is 62.4 % of T1 control; the “Lck DSM AUC (LCK found with CD4, normalised to CD4), percent of T1” value was 111 % of T1 control; the “Lck Total AUC (LCK found with CD4, normalised to CD4), percent of T1” value is 93 % of T1 control. Besides, in assay [3], the “Lck DRM AUC (LCK found with CD4, normalised to CD4), percent of T1” value was 274 % of T1 control; the “Lck DSM AUC (LCK found with CD4, normalised to CD4), percent of T1” value is 131 % of T1 control; the “Lck Total AUC (LCK found with CD4, normalised to CD4), percent of T1” value is 139 % of T1 control. Further, in assay [4], the “Lck DRM AUC (LCK found with CD4, normalised to CD4), percent of T1” value is 121 % of T1 control; the “Lck DSM AUC (LCK found with CD4, normalised to CD4), percent of T1” value is 115 % of T1 control; the “Lck Total AUC (LCK found with CD4, normalised to CD4), percent of T1” value was 113 % of T1 control. In assay [5], the “Lck DRM AUC (LCK found with CD4, normalised to CD4), percent of T1” value was 86.8 % of T1 control; the “Lck DSM AUC (LCK found with CD4, normalised to CD4), percent of T1” value was 103 % of T1 control; the “Lck Total AUC (LCK found with CD4, normalised to CD4), percent of T1” value is 101 % of T1 control.
